Two molecules from patent US20140072613A1 (published 2014) can be followed below.

Experiment in all cases: cell-based or functional assay
Test [1] addresses Flt4(h) (human, UniProt P35916 800-1363, limits assumed).
The target of test [2] is JNK1α1(h) (human, UniProt P45983-2 1-384).
Test [3] has as its target MAPKAP-K2(h) (human, UniProt P49137 46-400).
Test [4] has as its target PDGFRβ(h) (human, UniProt P09619 557-1106, limits assumed).
Test [5] has as its target T1, Aurora-A(h) (human, UniProt O14965 1-403).
T1 sequence (looked up): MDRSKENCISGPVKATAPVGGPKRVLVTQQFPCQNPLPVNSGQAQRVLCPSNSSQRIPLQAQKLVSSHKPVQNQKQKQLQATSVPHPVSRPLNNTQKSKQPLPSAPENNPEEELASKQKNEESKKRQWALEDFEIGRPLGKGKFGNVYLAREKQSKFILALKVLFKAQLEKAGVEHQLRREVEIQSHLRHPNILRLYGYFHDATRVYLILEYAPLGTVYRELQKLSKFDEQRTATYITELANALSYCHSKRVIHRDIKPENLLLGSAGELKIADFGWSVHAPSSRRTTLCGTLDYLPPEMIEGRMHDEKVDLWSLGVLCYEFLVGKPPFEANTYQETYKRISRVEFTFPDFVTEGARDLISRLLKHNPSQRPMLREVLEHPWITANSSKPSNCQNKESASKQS

Test [6] deals with Aurora-B(h) (human, UniProt Q96GD4 1-344).
The target in test [7] is T2, PRAK(h) (human, UniProt Q8IW41 1-473, limits assumed).
T2 sequence (looked up): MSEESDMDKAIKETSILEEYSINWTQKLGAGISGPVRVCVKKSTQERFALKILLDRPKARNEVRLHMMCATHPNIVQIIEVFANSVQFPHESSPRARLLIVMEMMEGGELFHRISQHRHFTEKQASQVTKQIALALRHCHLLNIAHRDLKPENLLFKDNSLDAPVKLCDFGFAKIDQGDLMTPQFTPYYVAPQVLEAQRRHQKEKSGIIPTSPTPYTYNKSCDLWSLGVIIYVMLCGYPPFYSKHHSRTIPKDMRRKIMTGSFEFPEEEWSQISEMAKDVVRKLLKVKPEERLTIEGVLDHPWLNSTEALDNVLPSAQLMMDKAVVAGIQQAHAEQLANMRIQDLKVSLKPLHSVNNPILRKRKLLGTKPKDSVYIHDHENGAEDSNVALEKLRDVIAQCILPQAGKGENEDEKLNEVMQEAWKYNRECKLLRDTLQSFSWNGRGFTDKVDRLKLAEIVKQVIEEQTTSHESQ

Test [8] deals with T3, Axl(h) (human, UniProt P30530 473-894, limits assumed).
T3 sequence (looked up): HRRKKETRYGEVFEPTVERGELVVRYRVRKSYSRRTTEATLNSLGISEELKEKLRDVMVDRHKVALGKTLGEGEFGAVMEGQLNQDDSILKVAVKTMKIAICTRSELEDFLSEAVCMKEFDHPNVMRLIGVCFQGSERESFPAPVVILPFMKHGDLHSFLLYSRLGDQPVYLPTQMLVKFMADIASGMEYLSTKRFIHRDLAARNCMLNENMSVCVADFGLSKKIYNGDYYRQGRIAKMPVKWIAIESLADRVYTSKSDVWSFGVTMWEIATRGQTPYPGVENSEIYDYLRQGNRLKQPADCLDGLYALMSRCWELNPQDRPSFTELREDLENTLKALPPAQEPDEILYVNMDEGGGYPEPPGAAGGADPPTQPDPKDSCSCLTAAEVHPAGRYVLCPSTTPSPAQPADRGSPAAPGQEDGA

In test [9] the target is T4, BrSK2(h) (human, UniProt Q8IWQ3 1-736, limits assumed).
T4 sequence (looked up): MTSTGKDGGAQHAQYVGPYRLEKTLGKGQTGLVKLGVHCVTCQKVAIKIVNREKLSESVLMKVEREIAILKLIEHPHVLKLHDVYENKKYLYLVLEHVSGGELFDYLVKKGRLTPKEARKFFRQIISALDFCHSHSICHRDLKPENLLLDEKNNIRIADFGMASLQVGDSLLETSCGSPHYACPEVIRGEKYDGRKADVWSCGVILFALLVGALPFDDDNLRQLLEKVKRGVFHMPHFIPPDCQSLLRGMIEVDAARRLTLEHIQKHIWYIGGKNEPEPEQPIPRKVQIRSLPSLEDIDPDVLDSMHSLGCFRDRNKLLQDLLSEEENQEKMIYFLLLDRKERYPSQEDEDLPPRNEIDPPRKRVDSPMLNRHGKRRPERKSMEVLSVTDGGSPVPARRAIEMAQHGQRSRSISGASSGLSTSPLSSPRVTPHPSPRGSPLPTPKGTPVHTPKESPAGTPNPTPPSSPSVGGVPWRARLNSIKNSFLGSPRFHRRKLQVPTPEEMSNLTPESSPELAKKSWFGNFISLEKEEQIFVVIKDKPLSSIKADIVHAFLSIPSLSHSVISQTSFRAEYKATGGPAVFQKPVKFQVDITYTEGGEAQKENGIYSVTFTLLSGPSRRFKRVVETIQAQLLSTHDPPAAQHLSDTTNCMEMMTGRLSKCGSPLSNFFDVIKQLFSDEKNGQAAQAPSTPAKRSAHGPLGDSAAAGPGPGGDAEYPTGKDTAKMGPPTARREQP

Test [10] deals with CLK3(h) (human, UniProt P49761 1-490, limits assumed).
Test [11] concerns the target T5, EphA8(h) (human, UniProt P29322 564-1005, limits assumed).
T5 sequence (looked up): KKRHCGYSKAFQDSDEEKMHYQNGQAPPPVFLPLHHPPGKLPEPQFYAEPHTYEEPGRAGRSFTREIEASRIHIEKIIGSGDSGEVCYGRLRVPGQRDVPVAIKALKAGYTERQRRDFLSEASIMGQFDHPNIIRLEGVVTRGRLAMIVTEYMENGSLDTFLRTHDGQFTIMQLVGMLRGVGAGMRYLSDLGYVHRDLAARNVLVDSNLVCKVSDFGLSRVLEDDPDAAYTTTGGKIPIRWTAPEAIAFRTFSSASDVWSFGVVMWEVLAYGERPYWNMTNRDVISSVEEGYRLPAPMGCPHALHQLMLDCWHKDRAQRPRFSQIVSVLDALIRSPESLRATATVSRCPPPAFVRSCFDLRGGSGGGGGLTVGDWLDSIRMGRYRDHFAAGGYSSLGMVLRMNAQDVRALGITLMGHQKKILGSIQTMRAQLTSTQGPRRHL

Sequence of Aurora-B(h) (Q96GD4 whole entry): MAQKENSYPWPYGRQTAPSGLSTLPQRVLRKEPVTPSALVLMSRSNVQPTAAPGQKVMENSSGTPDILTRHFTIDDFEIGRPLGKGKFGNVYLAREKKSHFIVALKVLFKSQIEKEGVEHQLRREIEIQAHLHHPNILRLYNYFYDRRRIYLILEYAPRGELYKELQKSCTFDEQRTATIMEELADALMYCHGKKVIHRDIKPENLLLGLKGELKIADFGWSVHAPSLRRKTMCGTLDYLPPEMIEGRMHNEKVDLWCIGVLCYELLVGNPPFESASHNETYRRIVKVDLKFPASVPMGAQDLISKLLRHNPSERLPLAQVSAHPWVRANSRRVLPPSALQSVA
Sequence of PDGFRβ(h) (P09619 557-1106 limits assumed): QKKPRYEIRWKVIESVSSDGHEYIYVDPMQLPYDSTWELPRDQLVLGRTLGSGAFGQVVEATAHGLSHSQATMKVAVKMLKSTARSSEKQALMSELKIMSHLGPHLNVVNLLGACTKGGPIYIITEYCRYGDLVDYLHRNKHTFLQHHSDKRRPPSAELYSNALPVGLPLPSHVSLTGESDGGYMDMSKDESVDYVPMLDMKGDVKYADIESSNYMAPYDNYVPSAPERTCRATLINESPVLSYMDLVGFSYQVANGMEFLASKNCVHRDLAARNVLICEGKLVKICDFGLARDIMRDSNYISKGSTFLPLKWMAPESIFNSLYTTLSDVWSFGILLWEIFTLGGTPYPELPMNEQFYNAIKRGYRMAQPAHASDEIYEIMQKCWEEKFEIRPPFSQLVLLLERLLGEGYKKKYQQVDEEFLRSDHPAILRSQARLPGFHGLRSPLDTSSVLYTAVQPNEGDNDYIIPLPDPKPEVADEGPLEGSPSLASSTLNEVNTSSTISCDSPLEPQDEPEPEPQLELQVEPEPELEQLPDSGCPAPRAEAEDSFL
Sequence of JNK1α1(h) (P45983 other isoform, or with tags, fused parts or gaps limits assumed): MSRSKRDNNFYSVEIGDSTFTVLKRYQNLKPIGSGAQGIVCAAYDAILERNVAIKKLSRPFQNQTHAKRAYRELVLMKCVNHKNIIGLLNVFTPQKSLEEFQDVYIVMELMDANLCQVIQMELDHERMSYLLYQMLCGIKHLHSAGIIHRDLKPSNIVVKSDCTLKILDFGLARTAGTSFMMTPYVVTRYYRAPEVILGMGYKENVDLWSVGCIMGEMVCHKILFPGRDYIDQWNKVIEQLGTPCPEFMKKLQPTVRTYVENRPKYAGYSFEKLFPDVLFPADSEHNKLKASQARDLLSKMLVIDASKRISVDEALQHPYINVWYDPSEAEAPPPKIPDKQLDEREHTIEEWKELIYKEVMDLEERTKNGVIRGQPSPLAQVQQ
Sequence of MAPKAP-K2(h) (P49137 46-400 limits assumed): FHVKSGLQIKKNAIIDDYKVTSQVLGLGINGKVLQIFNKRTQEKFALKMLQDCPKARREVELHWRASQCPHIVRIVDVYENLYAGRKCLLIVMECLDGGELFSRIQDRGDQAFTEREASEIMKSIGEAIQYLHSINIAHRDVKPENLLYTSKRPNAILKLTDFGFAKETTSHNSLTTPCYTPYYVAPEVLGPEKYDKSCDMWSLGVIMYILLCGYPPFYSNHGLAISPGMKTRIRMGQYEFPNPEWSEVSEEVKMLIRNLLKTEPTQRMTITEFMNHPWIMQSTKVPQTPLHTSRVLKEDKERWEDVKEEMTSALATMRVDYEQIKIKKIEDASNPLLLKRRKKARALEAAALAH
Sequence of CLK3(h) (P49761 whole entry): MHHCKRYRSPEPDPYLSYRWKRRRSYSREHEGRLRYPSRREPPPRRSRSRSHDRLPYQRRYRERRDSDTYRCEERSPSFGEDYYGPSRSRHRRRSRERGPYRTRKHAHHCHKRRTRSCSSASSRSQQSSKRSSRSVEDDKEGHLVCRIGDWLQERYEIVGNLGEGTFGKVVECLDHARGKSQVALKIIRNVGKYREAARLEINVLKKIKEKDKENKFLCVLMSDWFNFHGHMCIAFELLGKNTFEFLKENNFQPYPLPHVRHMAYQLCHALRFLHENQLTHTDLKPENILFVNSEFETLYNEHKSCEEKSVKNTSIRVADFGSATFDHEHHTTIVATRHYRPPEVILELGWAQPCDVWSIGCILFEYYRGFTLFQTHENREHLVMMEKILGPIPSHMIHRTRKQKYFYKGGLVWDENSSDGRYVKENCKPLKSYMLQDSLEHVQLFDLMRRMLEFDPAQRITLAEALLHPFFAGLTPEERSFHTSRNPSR
Sequence of Flt4(h) (P35916 800-1363 limits assumed): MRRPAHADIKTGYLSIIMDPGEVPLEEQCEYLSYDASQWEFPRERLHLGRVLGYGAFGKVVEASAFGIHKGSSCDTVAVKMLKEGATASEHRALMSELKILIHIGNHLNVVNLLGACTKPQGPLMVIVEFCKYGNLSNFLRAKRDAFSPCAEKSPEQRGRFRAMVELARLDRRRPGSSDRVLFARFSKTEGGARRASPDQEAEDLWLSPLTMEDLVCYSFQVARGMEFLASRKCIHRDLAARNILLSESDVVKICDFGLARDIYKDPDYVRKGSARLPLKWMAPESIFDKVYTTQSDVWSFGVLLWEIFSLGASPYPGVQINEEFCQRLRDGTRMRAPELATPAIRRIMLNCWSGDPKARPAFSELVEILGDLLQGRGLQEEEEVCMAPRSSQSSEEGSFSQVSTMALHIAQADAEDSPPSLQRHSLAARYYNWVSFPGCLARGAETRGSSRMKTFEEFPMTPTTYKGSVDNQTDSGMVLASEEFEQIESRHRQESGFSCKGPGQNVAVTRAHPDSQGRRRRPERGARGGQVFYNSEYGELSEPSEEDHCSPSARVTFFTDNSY

Turning to FAKLAARLYRKALARQLGVAA [MMI-0300], the “% activity, 100 µM” value in test [1] is 83%; in test [2] it was 97%; in [3] it was 5%; in test [4], 81%; in [5], 92%; in test [6], 128%. For the same molecule, the “% activity, 100 µM” value in test [7] was 128%; in test [8] it was 52%; in [9], 83%; in test [10], 61%; in test [11], 93%.
Turning to KAFAKLAARLYRKALARQLGVAA [MMI-0400], the “% activity, 100 µM” value in [1] turned out to be 89%; in test [2] it was 98%; in [3] it was 5%; in [4], 53%; in [5], 119%; in test [6], 150%. Moreover, the “% activity, 100 µM” value in [7] is 118%; in test [8] it was 41%; in test [9], 86%; in test [10], 84%; in test [11] it was 146%.
